According to publication PMC8316464:

Assays:
Experiment in all cases: SPR; Biacore S200; Bcl-2 family proteins immobilised on CM5 (amine coupling or His-Capture Kit); peptides and flag-tagged proteins as analytes, single-cycle kinetics, HBS-EP, 25 °C; 1:1 Langmuir model; absence of binding probed at 100 nM and 3 µM
[1] = molecular target: Bcl-2 (human) (UniProt P10415)
[2] = molecular target: His-tagged human Mcl-1 (human) (UniProt Q07820)
[3] = molecular target: Bcl-xL (human) (UniProt Q07817)
Bcl-xL (human), sequence (Q07817 whole entry): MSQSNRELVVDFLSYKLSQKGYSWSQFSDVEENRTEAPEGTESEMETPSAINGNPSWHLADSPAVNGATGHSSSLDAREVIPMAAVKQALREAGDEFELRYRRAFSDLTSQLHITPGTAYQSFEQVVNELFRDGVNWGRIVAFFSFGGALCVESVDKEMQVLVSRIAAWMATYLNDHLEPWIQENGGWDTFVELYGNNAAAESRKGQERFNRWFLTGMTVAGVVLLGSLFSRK

Bim BH3 peptide (25-mer, residues 141-165), sequence (peptide): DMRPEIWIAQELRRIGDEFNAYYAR
His-tagged human Mcl-1 (human), sequence (Q07820 whole entry): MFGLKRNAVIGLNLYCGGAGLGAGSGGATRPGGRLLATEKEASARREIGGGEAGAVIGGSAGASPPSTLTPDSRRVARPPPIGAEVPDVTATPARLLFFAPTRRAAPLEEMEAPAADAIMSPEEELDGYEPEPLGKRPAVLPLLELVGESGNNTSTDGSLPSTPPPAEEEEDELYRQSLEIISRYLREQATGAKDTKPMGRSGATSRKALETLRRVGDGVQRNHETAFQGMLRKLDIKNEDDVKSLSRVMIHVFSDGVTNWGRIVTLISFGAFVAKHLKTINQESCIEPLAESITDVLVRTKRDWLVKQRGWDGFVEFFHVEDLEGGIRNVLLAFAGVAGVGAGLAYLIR

| Kd [1] [nM] | Kd [2] [nM] | Kd [3] [nM] | Substance |
| --- | --- | --- | --- |
| 115 | 0.82 | 12.2 | Bim (A149I) peptide |
| 14.2 | 0.37 | 3.3 | Bim BH3 peptide (25-mer, residues 141-165) |
